Experimental findings from patent US9234007B2, “RGD mimetic γ-AApeptides and methods of use” (UNIVERSITY OF SOUTH FLORIDA, priority 2012, dated 2016) are described below.

Molecules are shown by their SMILES.

A short description of one series: in vivo. Details: species or system mice. As to conditions: female, nude, mouse, iv, 10 mg/kg, total radioactivity. As to the method: (§1) PET scans at various time points post-injection (p.i.), as well as quantitative region-of-interest (ROI) analysis of the PET data, were performed as described previously.^14 Coronal and transaxial PET slices that contain the U87MG tumors are shown in FIG. 5A, and the quantitative data are shown in FIGS. 5B and 5C. […] PET scans were performed using an Inveon microPET/microCT rodent model scanner (Siemens Medical Solutions USA, Inc.). Each U87MG tumor-bearing mouse was injected with 5-10 MBq of the PET tracer via tail vein and 5 minute static PET scans were performed at various time points post-injection (p.i.). The images were reconstructed using a maximum a posteriori (MAP) algorithm, with no attenuation or scatter correction. For each microPET scan, three-dimensional (3D) regions-of-interest (ROIs) were drawn over the tumor and major organs by using vendor software (Inveon Research Workplace [IRW]) on decay-corrected whole-body images. Assuming a tissue density of 1 g/mL, the ROIs were converted to MBq/g using a conversion factor (pre-determined using a 20 mL centrifuge tube filled with ˜37 MBq of ^64CuCl2 as a phantom), and then divided by the total administered radioactivity to obtain an image ROI-derived percentage injected dose per gram of tissue (% ID/g).

Another series relates to integrin αvβ3. The series is described as follows: in vivo. Details: species or system mice. As to conditions: mouse, iv; for Liver uptake, blocking group / Radioactivity in the blood, blocking group / U87MG tumor uptake, blocking: 10 mg/kg. As to the method:
as §1

As a reminder, the tissue uptake is the percentage of the injected dose found per gram of tissue. For the compound `N=C(N)NCCC(=O)N(CC(=O)NCCN(CC(N)=O)C(=O)CC(=O)O)C[C@H](Cc1ccccc1)NC(=O)CCCCCNC(=O)CN1CCN(CC(=O)O)CCN(CC(=O)O)CCN(CC(=O)O)CC1` [^64Cu-γ-AA2, metal not drawn], the tissue uptake at 0.5 h in “in vivo” is 0.5 ± 0.1 %ID/g. Also, the clearance route entry in the series on integrin αvβ3 is “both hepatobiliary and renal clearance”. In the series with integrin αvβ3 (0.5 h), the “Liver uptake, blocking group” value came to 7.2±2.0 % ID/g; the U87MG tumor uptake amounted to 0.9±0.3 % ID/g; the tumor/muscle ratio is 3.8±0.9. In addition, in the series with integrin αvβ3 (2 h), the “Liver uptake, blocking group” value came out at 6.1±1.6 % ID/g; the “Radioactivity in the blood, blocking group” value (shortened to “Radioactivity in the blood”) stood at 0.4±0.1 % ID/g; the “U87MG tumor uptake, blocking” value worked out at 0.4±0.1 % ID/g; the U87MG tumor uptake is reported as 1.0±0.2 % ID/g. The tumor/muscle ratio in the series on integrin αvβ3 (2 h) is 4.8±1.8. Moreover, in the series on integrin αvβ3 (4 h), the “Liver uptake, blocking group” value came out at 5.3±1.3 % ID/g; the “Radioactivity in the blood” value amounted to 0.4±0.1 % ID/g; the “U87MG tumor uptake, blocking” value stood at 0.4±0.1 % ID/g; the U87MG tumor uptake came to 1.1±0.2 % ID/g. In addition, the tumor/muscle ratio in the series with integrin αvβ3 (4 h) came to 5.8±1.4. In the series on integrin αvβ3 (24 h), the “Liver uptake, blocking group” value was determined as 4.0±0.6 % ID/g; the “Radioactivity in the blood” value turned out to be 0.4±0.1 % ID/g; the “U87MG tumor uptake, blocking” value turned out to be 0.4±0.1 % ID/g; the U87MG tumor uptake was 0.7±0.2 % ID/g. The tumor/muscle ratio in the series with integrin αvβ3 (24 h) was 8.3±3.9.
